Results from paper doi:10.1101/2025.11.07.687187 (bioRxiv, 2025).

Target: the molecule itself
Assay: cryo-EM structure

B1: SPATA5 wild-type, C-terminal 3xFLAG (enzyme, human, UniProt Q8NB90 1-893, looked up)
chain: MSSKKNRKRLNQSAENGSSLPSAASSCAEARAPSAGSDFAATSGTLTVTNLLEKVDDKIPKTFQNSLIHLGLNTMKSANICIGRPVLLTSLNGKQEVYTAWPMAGFPGGKVGLSEMAQKNVGVRPGDAIQVQPLVGAVLQAEEMDVALSDKDMEINEEELTGCILRKLDGKIVLPGNFLYCTFYGRPYKLQVLRVKGADGMILGGPQSDSDTDAQRMAFEQSSMETSSLELSLQLSQLDLEDTQIPTSRSTPYKPIDDRITNKASDVLLDVTQSPGDGSGLMLEEVTGLKCNFESAREGNEQLTEEERLLKFSIGAKCNTDTFYFISSTTRVNFTEIDKNSKEQDNQFKVTYDMIGGLSSQLKAIREIIELPLKQPELFKSYGIPAPRGVLLYGPPGTGKTMIARAVANEVGAYVSVINGPEIISKFYGETEAKLRQIFAEATLRHPSIIFIDELDALCPKREGAQNEVEKRVVASLLTLMDGIGSEVSEGQVLVLGATNRPHALDAALRRPGRFDKEIEIGVPNAQDRLDILQKLLRRVPHLLTEAELLQLANSAHGYVGADLKVLCNEAGLCALRRILKKQPNLPDVKVAGLVKITLKDFLQAMNDIRPSAMREIAIDVPNVSWSDIGGLESIKLKLEQAVEWPLKHPESFIRMGIQPPKGVLLYGPPGCSKTMIAKALANESGLNFLAIKGPELMNKYVGESERAVRETFRKARAVAPSIIFFDELDALAVERGSSLGAGNVADRVLAQLLTEMDGIEQLKDVTILAATNRPDRIDKALMRPGRIDRIIYVPLPDAATRREIFKLQFHSMPVSNEVDLDELILQTDAYSGAEIVAVCREAALLALEEDIQANLIMKRHFTQALSTVTPRIPESLRRFYEDYQEKSGLHTL
- binding result: binds
